For assay [1], the system named is STAT3 phosphorylation (Tyr705), IL23R + IL12Rβ1. In words: Phospho-STAT3 AlphaLISA Surefire Ultra assay, wildtype IL23R. Type of assay: cell-based, human. The settings on record: for Individual experimental means, phospho-STAT3 signal (Figure 6 panel b): IL-23 (5nM). The text has this: (§1) To test this, we created untagged and NanoLuc tagged versions of IL23R with the C115Y mutation. […] Using an intra-receptor NanoBRET assay to measure the basal association of receptor subunits (as previously described in Lay et al.[24]), we discovered that the […] mutant still associated with a fluorescently labelled HaloTag (HT) tagged IL12Rβ1 construct although this was reduced by 50.1% from the level of association measured for wildtype IL23R, a reduction consistent with the protein’s reduced total and surface expression (Fig. 6e).
Data are mean ± SEM from five or six (untagged) or three (NanoLuc tagged) independent experiments conducted in triplicate. For the IL23R + IL12Rβ1 data set, one outlier (11108.7) was detected using the Grubbs test (with alpha = 0.001) and removed from the statistical analysis. Statistical significance of the C115Y mutation on the alphaLISA data was assessed using a 2-way ANOVA with Tukey’s multiple comparison test. ***p < 0.001. The p value for the comparison of NL tagged construct response was 0.0001 and the p value for the comparison of untagged receptor was 0.951. c Luminescence signal measured when IL12Rβ1 was expressed with either NL-IL23R or the C115Y mutant. Data are mean ± SEM generated from the mean luminescence values of seven (C115Y) or eight independent experiments performed in pentuplicate. d The proportion of luminescence from c that emanated from extracellular protein (as defined by the reduction in luminescence after treatment with 60 μM NanoLuc extracellular inhibitor). Data are mean ± SEM generated from the mean luminescence values of five (C115Y) or six independent experiments performed in triplicate. e The BRET ratio generated from HaloTag-618 labelled cells expressing NL tagged wildtype or C115Y IL23R with HT-IL12Rβ1 or unlabelled IL12Rβ1. […] Statistical significance of differences in mean values shown in c–e were measured using a 2-sided, non-paired t test with ** indicating a p value of <0.005 and *** indicating a p value of <0.0005. […]
A general note: In Alpha technology, singlet oxygen from a donor bead excites a nearby acceptor bead.

The test system of assay [2] is STAT3 phosphorylation (Tyr705), C115Y IL23R + IL12Rβ1. In words: Phospho-STAT3 AlphaLISA Surefire Ultra assay, C115Y IL23R. Format: cell-based, human. The settings on record: for Mean, phospho-STAT3 signal (Figure 6 panel b): 5 nM IL-23; for Individual experimental means, phospho-STAT3 signal (Figure 6 panel b): IL-23 (5nM).
Text: as §1
Data are mean ± SEM from five or six (untagged) or three (NanoLuc tagged) independent experiments conducted in triplicate. For the IL23R + IL12Rβ1 data set, one outlier (11108.7) was detected using the Grubbs test (with alpha = 0.001) and removed from the statistical analysis. Statistical significance of the C115Y mutation on the alphaLISA data was assessed using a 2-way ANOVA with Tukey’s multiple comparison test. ***p < 0.001. The p value for the comparison of NL tagged construct response was 0.0001 and the p value for the comparison of untagged receptor was 0.951. c Luminescence signal measured when IL12Rβ1 was expressed with either NL-IL23R or the C115Y mutant. Data are mean ± SEM generated from the mean luminescence values of seven (C115Y) or eight independent experiments performed in pentuplicate. d The proportion of luminescence from c that emanated from extracellular protein (as defined by the reduction in luminescence after treatment with 60 μM NanoLuc extracellular inhibitor). Data are mean ± SEM generated from the mean luminescence values of five (C115Y) or six independent experiments performed in triplicate. e The BRET ratio generated from HaloTag-618 labelled cells expressing NL tagged wildtype or C115Y IL23R with HT-IL12Rβ1 or unlabelled IL12Rβ1. Data are mean ± SEM generated from the mean BRET values of three independent experiments performed in pentuplicate. Statistical significance of differences in mean values shown in c–e were measured using a 2-sided, non-paired t test with ** indicating a p value of <0.005 and *** indicating a p value of <0.0005. The p values for the results shown in c, d and e were p = 0.148, 0.0005 and 0.0013 respectively. Source data are provided as a Source Data file.
Phosphorylation of STAT3 was measured using an AlphaLISA Surefire Ultra assay as previously described. Briefly, transfected HEK293T cells were plated into a poly-D-lysine coated 96 well tissue culture microplate and then incubated overnight. The following day media was replaced with serum free DMEM and the cells incubated for 3 h. […] An AlphaLISA SureFire Ultra assay kit (Perkin Elmer #ALSU-PST3) was then used to measure STAT3 phosphorylation at residue Tyr705. Assays were performed according to the manufacturers’ instructions.

Assay [3] concerns the target T1, NL-IL23R and IL12Rβ1 (IL-23 receptor) on HEK293T cells (Homo sapiens, UniProt P42701+Q5VWK5).
T1 construct: expressed in transfected cells; host or cells: HEK293T (ATCC CRL-3216), transient transfection
In words: P630-TMR NanoBRET competition assay. Format: binding. The settings on record: for Displacement of 75 nM P630-TMR (Mean): Fig. 5a. How it is done: (§2) Transient transfections for experiments outlined in Fig. 6 were conducted by seeding 100 μL of 2 × 10^5 cells/ml concentrated HEK293T cells into poly-D-lysine (PDL) coated white 96 well clear bottom assay microplates (Greiner) and incubating overnight. The following day transfection mixes were made up that contained a 4:1 ratio of IL23R to IL12Rβ1 constructs to a total concentration of 100 ng per well with a 0.3 μL per well of FuGENE HD transfection reagent (Promega) in OptiMEM (Gibco). These mixtures were incubated for 10 min before being added to the plate at 5 μL per well. The cells were then incubated overnight to allow expression. For all other experiments 2 mL containing 4 × 10^5 cells were seeded into 6 well plates and incubated 5 h before being transiently transfected with 100 μL per well of a transfection mix containing 2 μg of DNA and 6 μL of FuGENE HD. These cells were then incubated overnight before being re-suspended the following day and seeded into PDL coated white assay microplates at 100 μL containing 3 × 10^4 transfected cells. Cells were then incubated overnight before the experiment. Estimates of total expression levels for the different NL-constructs were made by comparing the luminescence levels achieved to that of a NanoLuciferase standard curve measured under the same conditions (Supplementary Fig. 1).
Media was removed from white 96-well microplates containing transfected cells and replaced with fluoroprobe in the presence or absence of antagonist in 50 μL Hanks Balanced Salt Solution (HBSS) with 1 mg/mL BSA (Merck). After a 1-hour incubation at 37 °C without CO2, 5 μL of HBSS containing 77 μM furimizine was added to each well (final concentration 7 μM), the plate incubated for 5-minutes and the BRET signal measured using a PheraStar FS plate reader (BMG Labtech; data acquisition software version 5.41; MARS analysis software version 3.32) with a 450 ± 30 nm and >550 nm long pass filters.
(§3) Antagonist competition data were fit with the equation:4 Y=Bmin+Bmax−Bmin/1+10^(LogXC50−[A])C Where ‘Bmax’ is the maximum BRET signal, ‘Bmin’ is the minimum BRET signal, ‘LogXC50’ is the log of the 50% inhibiting concentration of antagonist, ‘[A]’ is the concentration of antagonist and ‘C’ is the Hill slope.
(BRET reads energy transfer from a luciferase to a nearby fluorophore.)

Assay [4] has as its target T1, NL-IL23R and IL12Rβ1 (IL-23 receptor) on HEK293T cells. As to the kind of experiment: IL23-TMR NanoBRET competition assay. Type of assay: binding. Set-up: Inhibition of IL23-TMR binding (Mean): unit not given here. As to conditions: for Inhibition of IL23-TMR binding (Mean): 300 pM IL23-TMR. The protocol: Schematic created with Biorender.com. IL23R is shown in orange, IL12Rβ1 in purple, IL23p19 in blue, IL12p40 in green and the presence of a TAMRA fluorophore by a pink star. […] In b and c, data are mean ± SEM from 5 independent experiments conducted in either duplicate or triplicate. Details on absolute number of data points included for each concentration are provided in the associated Source Data file.
as §2
Media was removed from white 96-well microplates containing transfected cells and replaced with fluoroprobe in the presence or absence of antagonist in 50 μL Hanks Balanced Salt Solution (HBSS) with 1 mg/mL BSA (Merck).
as §3

“And” between values parts separate entries of the source, which are not always exact repeats. Equal entries are not always repeated. “Also recorded” adds a separate entry of the source.

T1 sequence (Q5VWK5 24-629, other chains not shown): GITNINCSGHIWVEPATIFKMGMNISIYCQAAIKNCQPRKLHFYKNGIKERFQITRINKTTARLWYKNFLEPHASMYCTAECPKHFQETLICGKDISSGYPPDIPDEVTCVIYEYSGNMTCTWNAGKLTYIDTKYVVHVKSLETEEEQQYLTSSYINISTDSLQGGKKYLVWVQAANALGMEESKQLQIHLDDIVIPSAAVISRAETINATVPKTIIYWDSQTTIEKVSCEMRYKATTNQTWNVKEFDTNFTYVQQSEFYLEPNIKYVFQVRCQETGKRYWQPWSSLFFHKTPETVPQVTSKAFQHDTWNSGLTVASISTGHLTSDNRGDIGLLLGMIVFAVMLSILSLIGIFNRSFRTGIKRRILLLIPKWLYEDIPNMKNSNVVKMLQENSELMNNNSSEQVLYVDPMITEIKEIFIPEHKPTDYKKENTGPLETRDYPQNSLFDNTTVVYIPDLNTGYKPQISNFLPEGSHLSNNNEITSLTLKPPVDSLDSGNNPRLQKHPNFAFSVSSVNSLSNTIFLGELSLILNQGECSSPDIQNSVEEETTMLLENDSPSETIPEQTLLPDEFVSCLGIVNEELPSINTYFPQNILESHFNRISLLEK

On to “IL-23: heterodimeric cytokine, disulphide linked complex of IL12p40 and IL23p19”, for which the “Mean, phospho-STAT3 signal (Figure 6 panel b)” value in assay [1] (5 nM IL-23, transfection NL-IL23R + IL12Rβ1, N 3) stood at 5562.78; in assay [2] (transfection IL23R (C115Y) + IL12Rβ1, N 6), 1388.06; in assay [2] (transfection NL-IL23R (C115Y) + IL12Rβ1, N 3), 1262.44. Besides, the “Individual experimental means, phospho-STAT3 signal (Figure 6 panel b)” value in assay [1] (transfection IL23R + IL12Rβ1) was 2394 and 1760.67 and 1431.33 and 2064.67 and 2014; in assay [1] (transfection NL-IL23R + IL12Rβ1), 2330.67 and 6586.67 and 7771; in assay [2] (transfection IL23R (C115Y) + IL12Rβ1), 1279.33 and 1494.67 and 1589.67 and 1247.67 and 1140 and 1577; in assay [2] (transfection NL-IL23R (C115Y) + IL12Rβ1), 760 and 1260.33 and 1767.
With “TEEEQQLY [octapeptide reported to be a negative allosteric modulator (NAM) of the IL-23 receptor]”, the “Displacement of 75 nM P630-TMR (Mean)” value in assay [3] ([TEEEQQLY] -4.09691 logM) was -0.7672; in assay [3] ([TEEEQQLY] -4.79588 logM), 3.824; in assay [3] ([TEEEQQLY] -5.49485 logM), 1.157; in assay [3] ([TEEEQQLY] -6.19382 logM) it was -2.412; in assay [3] ([TEEEQQLY] -6.89279 logM) it was -1.937; in assay [3] ([TEEEQQLY] -7.59176 logM), -4.432. Further, the results for the “Displacement of 75 nM P630-TMR (Mean)” value in assay [3] ([TEEEQQLY] -8.29073 logM) and in assay [3] ([TEEEQQLY] -8.9897 logM) were -0.4835 and -1.857, respectively. For the same substance, the “Displacement of P630-TMR” value in assay [3] (NL-IL23R and IL12Rβ1) was “did not displace P630-TMR; also recorded: Did not displace labelled probe”. For the same substance, the “Inhibition of IL23-TMR binding (Mean)” value in assay [4] ([TEEEQQLY] -4.56864 logM) is given as 13.433; in assay [4] ([TEEEQQLY] -5.04576 logM), 6.927; in assay [4] ([TEEEQQLY] -5.52288 logM) it was 9.9603; in assay [4] ([TEEEQQLY] -6 logM) it was 11.7979; in assay [4] ([TEEEQQLY] -6.47712 logM) it was 6.708; in assay [4] ([TEEEQQLY] -6.95424 logM), 2.6729. In addition, the “Inhibition of IL23-TMR binding (Mean)” value in assay [4] ([TEEEQQLY] -7.43136 logM) was 2.475; in assay [4] ([TEEEQQLY] -7.90849 logM) it was 7.532. The “Displacement of IL23-TMR” value in assay [4] (NL-IL23R and IL12Rβ1) is listed as “not to displace IL23-TMR; also recorded: Did not displace labelled probe”.

The record behind these values is paper PMC10199020 (Nature Communications, 2023).
